In paper PMC10491200 (bioRxiv, 2023):

Molecular target: the molecule itself
Experiment: cryo-EM structure

B1: human mGlu5 (21-872), metabotropic glutamate receptor subtype 5, in MSP2N2 lipid nanodisc (receptor)
chain: QSSERRVVAHMPGDIIIGALFSVHHQPTVDKVHERKCGAVREQYGIQRVEAMLHTLERINSDPTLLPNITLGCEIRDSCWHSAVALEQSIEFIRDSLISSEEEEGLVRCVDGSSSSFRSKKPIVGVIGPGSSSVAIQVQNLLQLFNIPQIAYSATSMDLSDKTLFKYFMRVVPSDAQQARAMVDIVKRYNWTYVSAVHTEGNYGESGMEAFKDMSAKEGICIAHSYKIYSNAGEQSFDKLLKKLTSHLPKARVVACFCEGMTVRGLLMAMRRLGLAGEFLLLGSDGWADRYDVTDGYQREAVGGITIKLQSPDVKWFDDYYLKLRPETNHRNPWFQEFWQHRFQCRLEGFPQENSKYNKTCNSSLTLKTHHVQDSKMGFVINAIYSMAYGLHNMQMSLCPGYAGLCDAMKPIDGRKLLESLMKTNFTGVSGDTILFDENGDSPGRYEIMNFKEMGKDYFDYINVGSWDNGELKMDDDEVWSKKSNIIRSVCSEPCEKGQIKVIRKGEVSCCWTCTPCKENEYVFDEYTCKACQLGSWPTDDLTGCDLIPVQYLRWGDPEPIAAVVFACLGLLATLFVTVVFIIYRDTPVVKSSSRELCYIILAGICLGYLCTFCLIAKPKQIYCYLQRIGIGLSPAMSYSALVTKTNRIARILAGSKKKICTKKPRFMSACAQLVIAFILICIQLGIIVALFIMEPPDIMHDYPSIREVYLICNTTNLGVVTPLGYNGLLILSCTFYAFKTRNVPANFNEAKYIAFTMYTTCIIWLAFVPIYFGSNYKIITMCFSVSLSATVALGCMFVPKVYIILAKPERNVRSAFTTSTVVRMHVGDGKSSSAASRSSSLVNLWKRRGSS
binding result: binds
